# Measured values reported in patent US10465009B2, “BCMA antigen binding proteins” (Amgen Inc., priority 2012, dated 2019).
# T1: BCMA (Homo sapiens, UniProt Q02223, N81S)
# T1 construct: cells transiently transfected to express full length BCMA, TACI, or BAFF-R; expressed in transfected cells
# T1 sequence (Q02223 1-184 N81S): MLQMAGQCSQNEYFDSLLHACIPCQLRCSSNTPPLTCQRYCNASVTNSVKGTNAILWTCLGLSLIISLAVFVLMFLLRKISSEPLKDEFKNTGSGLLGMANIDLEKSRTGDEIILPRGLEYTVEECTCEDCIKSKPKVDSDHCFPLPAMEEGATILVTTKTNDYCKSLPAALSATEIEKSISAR
# T2: huBCMA on H929 cells (Homo sapiens, UniProt Q02223, N81S)
# T2 construct: endogenous in cells; host or cells: H929 human multiple myeloma cell line
# T2 sequence (Q02223 1-184 N81S): T1 sequence (Q02223 1-184 N81S)
# B1: 1E1: fully human anti-huBCMA mAb, Vh SEQ ID NO:212, Vl SEQ ID NO:246 (antibody, V domains shown)
# VH: QVQLVQSGAEVKKPGASVKVSCKASGYTFTGHYIHWVRQAPGQGLEWMGWIYPNSGGTNYAQKFQGRVTMTRDTSISTAYMELSRLRSDDSAVYYCAREGMVTGDYYYYRMDVWGQGTTVIVSS
# VL: QPVLTQPPSASASLGASVTLTCSLSSGYSNYKVDWYQQRPGKGPRFVMRVGIGGIVGSKGDGIPDRFSVLGSGLNRYLTIKNIQEEDESDFHCGADHGSGNNFVYVFGTGTKVTVLG
# What was measured:
# BCMA = biological target: T1, BCMA; assay: FACS binding on cells transiently transfected to express full length BCMA; settings: MFI vs negative control
# Method: An important criterion is exquisite selectivity for wild-type human BCMA expressed on the surface of cells. FACS binding on cells transiently transfected to express full length BCMA, TACI, or BAFF-R was performed using standard techniques. Approximately 40×10^6 of the transiently-transfected target cells were resuspended in a staining solution (2% goat serum, 1% rabbit serum, 0.02% azide in PBS) and aliquoted into round-bottom, 96-well plate (Corning Incorp., Acton, Mass.) as per the experiment design. The cells were incubated at 4 degrees celsius for 30 minutes to block non-specific sites. The antibodies were titrated into the staining solution. The cells were rinsed in a rinse solution (PBS+0.02% azide) by resuspending the cells in 200 ul/well. The cells were centrifuged at 1500 rpm at 4 degrees celsius for 7 minutes. The rinse solution was removed and the rinse step was repeated. The cells were resuspended in the appropriate antibody solution (see the matrix in TABLE 4) at 30 ul/well and incubated at 4 degrees celsius for 30 minutes. […] For the mouse IgG1 negative control and the two mouse antibodies (1.183 and 1.288), the secondary reagent was an anti-mouse IgG-PE conjugate (BD Pharmingen Cat. 550589). The cells/antibodies were rinsed as described above to remove excess/unbound antibody. […] Samples were read at 532 nm wavelength on FACS. […]
# huBCMA on H929 cells = biological target: T2, huBCMA on H929 cells; assay: FACS binding to native BCMA on H929 myeloma cells; settings: flow cytometry; muteins relative to parental 2A1
# Method: Approximately 10 to 40×10^6 of H929 myeloma cells were resuspended in a staining solution (2% goat serum, 1% rabbit serum, 0.02% azide in PBS) and aliquoted into round-bottom, 96-well plate (Corning Incorp., Acton, Mass.) as per the experiment design. The cells were incubated at 4 degrees celsius for 30 minutes to block non-specific sites. The antibodies were titrated into the staining solution. The cells were rinsed in a rinse solution (PBS+0.02% azide) by resuspending the cells in 200 ul/well. The cells were centrifuged at 1500 rpm at 4 degrees celsius for 7 minutes. The rinse solution was removed and the rinse step was repeated. […] The huIgG1 negative control's secondary reagent was a biotinylated anti-huIgG (Jackson Labs, Bar Harbor, Me., Cat. 109-065-098), followed by a streptavidin-phycoerythrin (SA-PE) conjugate (BD Pharmingen, San Diego, Calif., Cat. 554061). […] The cells/antibodies were rinsed as described above to remove excess/unbound antibody. […] Samples were read at 532 nm wavelength on FACS.
# To further characterize the engineered mutein antibodies, they were tested for the ability to bind BCMA by FACS analysis. […] The supernatants were removed and the cell pellets were resuspended in 0.2 mL/tube 4% paraformaldehyde in PBS and analyzed by flow cytometry
molecule,measurement,setting,value
B1,BCMA (FACS binding),BCMA,+ (A sample was considered positive for binding if the MFI was two times the negative control value)
same,binding to BCMA on H929 cells,huBCMA on H929 cells,bound to human BCMA
